{"source": "patent US11339213B2", "about": "“Methods and compositions for treatment of cancer” (MEREO BIOPHARMA 5, INC., priority 2015, dated 2022)", "key": {"[1]": {"system": "OMP-PN8 pancreatic tumor cells", "test": "OMP-PN8 pancreatic xenograft, antibodies in combination with gemcitabine", "type": "in vivo, NOD-SCID mice", "conditions": "with gemcitabine 70 mg/kg weekly for four weeks, then antibody maintained, demcizumab, bevacizumab 15 mg/kg, bispecific 30 mg/kg", "experimental": "FIG. 9 is a graph showing that DLL4/VEGF bispecific is active in combination with gemcitabine in pancreatic cancer. OMP-PN8 pancreatic tumor cells were injected into NOD-SCID mice. Tumors were allowed to grow for 24 days until they had reached an average tumor volume of 110 mm^3. […] After four weeks of combination treatment, the gemcitabine was discontinued and the antibody treatments were maintained. Gemcitabine was dosed at 70 mg/kg, weekly.\nFollowing four weeks of treatment, the gemcitabine treatment was discontinued and the antibody treatments were maintained."}, "[2]": {"system": "ovarian serous carcinoma tumor model OMP-OV19", "test": "Tumor recurrence after chemotherapy termination, OMP-OV19", "type": "in vivo, NOD.SCID mice", "conditions": "paclitaxel 15 mg/kg with or without antibody once a week for 4 weeks, chemotherapy maintenance 3-4 weeks, monitored up to 2 months after discontinuation", "experimental": "FIGS. 7A and 7B are graphs showing delay in tumor recurrence by 305B83+21R30 and B20 following chemotherapy termination. Ovarian OMP-OV19 and pancreatic OMP-PN42-tumor bearing animals were randomized and treatment began when mean tumor volumes reached approximately 100-150 mm^3. NOD. SCID mice were treated with 15 mg/kg paclitaxel in OMP-OV19 and 10 mg/kg gemcitabine plus 30 mg/kg nab-pacltiaxel in OMP-PN42 with or without antibody once a week for 4 weeks, followed by a chemotherapy for 3-4 weeks. Thereafter, treatment was discontinued and tumor growth was monitored up to 2 months.\nTo determine the effect of simultaneous blockade of DLL4 and VEGF by the bi-specific antibody 305B83 plus 21R30 (anti-mDLL4) and B20 (anti-mVEGF) on tumor recurrence, an ovarian serous carcinoma tumor model OMP-OV19 and a pancreatic adenocarcinoma model OMP-PN42 were treated in combination with standard of care agents (paclitaxel in ovarian cancer and gemcitabine/nab-paclitaxel in pancreatic cancer) for four weeks followed by a chemotherapy maintenance phase for 3-4 weeks. Subsequently, tumor growth was monitored for up to two months following the discontinuation of treatment."}, "OMP-PN42 tumors": {"system": "OMP-PN42 tumors", "test": "OMP-PN42 xenograft, gemcitabine plus nab-paclitaxel with complete DLL4/VEGF inhibition", "type": "in vivo, NOD-SCID mice", "experimental": "FIG. 11 is a graph showing activity of anti-DLL4/VEGF bispecific in combination with gemcitabine plus nab-paclitaxel (ABRAXANE®). OMP-PN42 tumors were implanted in NOD-SCID mice. Tumor-bearing mice (n=10/group) were treated with control Ab, gemcitabine alone (30 mg/kg weekly), gemcitabine plus nab-paclitaxel, or the combination of anti-DLL4/VEGF (305B83, 21R30, B20) and gemcitabine plus nab-paclitaxel. Antibodies were dosed 10 mg/kg, weekly.\nIn patient-derived xenograft experiments, the stroma and vasculature is comprised of murine cells, whereas the tumor cells are human. Because DLL4 and VEGF are expressed in both tumor cells and in the stroma/vasculature, the previous experiments that were carried out with DLL4 and VEGF antagonists that block signaling of the human, but not murine, proteins and may have underestimated the full anti-tumor effect of blocking these pathways. To address this issue, the effect of simultaneous blockade of DLL4 and VEGF in both human tumor and murine stroma/vasculature cells in our xenograft studies were evaluated. This was done with experiments including surrogate antibodies—anti-mouse DLL4 (21R30) and anti-mouse VEGF (B20) in addition to 305B83 (which blocks human DLL4 and VEGF). Complete DLL4/VEGF inhibition in combination with gemcitabine plus nab-paclitaxel in OMP-PN42 tumors was tested."}, "xenograft tumor models": {"system": "xenograft tumor models", "conditions": "Hoey et al., 2009; U.S. Pat. No. 7,750,124; cited from earlier work"}, "[3]": {"system": "OMP-PN8 pancreatic tumor cells", "test": "Serial transplantation study of tumor initiating cell frequency, OMP-PN8", "type": "in vivo", "conditions": "four weeks of treatment, 90 tumor cells into 10 new mice, 83 days without treatment", "experimental": "FIG. 10 is a graph showing reduction of tumor-initiating cell frequency from anti-DLL4 activity. […] After four weeks of treatment, tumors were harvested, and the human tumor cells in the xenograft were purified. Ninety tumor cells from each treatment group were injected into new cohorts of 10 mice. Tumors were allowed to grow for 83 days without any further treatment. The volumes of the individual mice in the experiment are shown in the graph.\nTo determine the effect of DLL4 and VEGF inhibition on tumor initiating cell frequency in pancreatic cancer, serial transplantation studies were performed. […] Following four weeks of treatment, the tumors were harvested, and tumor cells from each treatment were implanted into a new set of mice. Tumors were then allowed to grow for 83 days without treatment. In the control group, nine out of ten mice grew large tumors (FIG. 10)."}, "OMP-C8 colon tumor cells": {"system": "OMP-C8 colon tumor cells", "test": "Human-mouse chimera skin graft model, luciferase-labeled OMP-C8 colon tumor growth", "type": "in vivo, NOD/SCID mice", "conditions": "OMP-C8 in human skin graft; 25 mg/kg intraperitoneally once a week; bioluminescence; compared to control antibody", "description": "Neonatal foreskin graft of about 2 cm^2 was implanted into the lateral trunk of anesthetized NOD/SCID mice. Luciferase-labeled human OMP-C8 colon tumor cells were then injected intradermally into the human skin graft 6 weeks post implant. Treatment was initiated 2 weeks later. Tumor growth was monitored by measurement of bioluminescence with the IVIS-200 Imaging System (Caliper Life Sciences).\nTo evaluate the effect of the bispecific anti-DLL4/VEGF antibody on tumor growth in a microenvironment composed of human cells, the human-mouse chimera skin graft model, in which human tumor cells are implanted intradermally into the full thickness of human skin previously transplanted onto mice was used."}, "[4]": {"test": "Phase 1a trial side effects", "type": "in vivo, human", "conditions": "patients receiving 305B83", "experimental": "To manage this side effect, a treatment algorithm was developed. First, if the patient's blood pressure exceeds 140/90, the patient is instructed to phone the principal investigator. The initial goal is to normalize blood pressure in 48-72 hours. Treatment with antihypertensive is to be adjusted daily if the blood pressure is not less than 140/90."}, "[5]": {"system": "vasculature-related genes, Notch target genes", "test": "Vasculature density and stromal/vascular and Notch target gene expression in treated xenograft tumors", "type": "in vivo, mouse", "conditions": "human genes in tumors", "experimental": "FIGS. 5A-5C are photomicrographs and graphs showing anti-VEGF inhibition of angiogenesis is dominant over anti-DLL4 hyperproliferation in animals receiving 305B83.\nThese experiments were carried out by including surrogate antibodies—anti-mouse DLL4 (21R30) and anti-mouse VEGF (B20)."}}, "data": [{"molecule": "bevacizumab: humanized anti-VEGF monoclonal antibody [reference compound]", "values": [{"measurement": "tumor growth after gemcitabine withdrawal", "setting": "[1]", "value": "had no effect"}]}, {"molecule": "CC(=O)O[C@H]1C(=O)[C@@]2(C)[C@H]([C@H](OC(=O)c3ccccc3)[C@]3(O)C[C@H](OC(=O)[C@H](O)[C@@H](NC(=O)c4ccccc4)c4ccccc4)C(C)=C1C3(C)C)[C@]1(OC(C)=O)CO[C@@H]1C[C@@H]2O", "note": "[paclitaxel]", "values": [{"measurement": "tumor growth during and after chemotherapy", "setting": "[2]", "value": "grew continuously during the course of study"}]}, {"molecule": "Nc1ccn([C@@H]2O[C@H](CO)[C@@H](O)C2(F)F)c(=O)n1", "note": "[gemcitabine, reference compound]", "values": [{"measurement": "tumor growth under chemotherapy", "setting": "OMP-PN42 tumors; gemcitabine 30 mg/kg weekly, alone or plus nab-paclitaxel", "value": "minimal effect"}]}, {"molecule": "demcizumab: anti-DLL4 antibody, also known as OMP-21M18 or 21M18 (antibody, chains of the INN, looked up, V domains shown) VH: QVQLVQSGAEVKKPGASVKISCKASGYSFTAYYIHWVKQAPGQGLEWIGYISSYNGATNYNQKFKGRVTFTTDTSTSTAYMELRSLRSDDTAVYYCARDYDYDVGMDYWGQGTLVTVSS VL: DIVMTQSPDSLAVSLGERATISCRASESVDNYGISFMKWFQQKPGQPPKLLIYAASNQGSGVPDRFSGSGSGTDFTLTISSLQAEDVAVYYCQQSKEVPWTFGGGTKVEIK", "values": [{"measurement": "frequency of cancer stem cells", "setting": "xenograft tumor models", "value": "reduce the frequency of cancer stem cells"}, {"measurement": "tumor growth", "setting": "xenograft tumor models", "value": "inhibit tumor growth"}, {"measurement": "tumor growth frequency after serial transplantation", "setting": "[3]", "value": "tumor growth frequency was reduced"}, {"measurement": "tumor growth after gemcitabine withdrawal", "setting": "[1]", "value": "significantly delayed tumor growth"}]}, {"molecule": "305B83: bispecific antibody 219R45-MB-21R83, anti-VEGF/anti-DLL4; blocks human DLL4 and VEGF (antibody, chains of the INN, looked up, V domains shown) VH: QVQLVQSGAEVKKPGASVKISCKASGYSFTAYYIHWVKQAPGQGLEWIGYISNYNRATNYNQKFKGRVTFTTDTSTSTAYMELRSLRSDDTAVYYCARDYDYDVGMDYWGQGTLVTVSS VL: DIVMTQSPDSLAVSLGERATISCRASESVDNYGISFMKWFQQKPGQPPKLLIYAASNQGSGVPDRFSGSGSGTDFTLTISSLQAEDVAVYYCQQSKEVPWTFGGGTKVEIK VH2: QVQLVQSGAEVKKPGASVKVSCKASGYTFTNYWMHWVRQAPGQGLEWMGDINPSNGRTSYKEKFKRRVTLSVDKSSSTAYMELSSLRSEDTAVYFCTIHYDDKYYPLMDYWGQGTLVTVSS VL2: DIVMTQSPDSLAVSLGERATISCRASESVDNYGISFMKWFQQKPGQPPKLLIYAASNQGSGVPDRFSGSGSGTDFTLTISSLQAEDVAVYYCQQSKEVPWTFGGGTKVEIK", "values": [{"measurement": "tumor growth, complete DLL4/VEGF inhibition with chemotherapy", "setting": "OMP-PN42 tumors; 305B83 plus surrogates 21R30 and B20, 10 mg/kg weekly, with gemcitabine plus nab-paclitaxel", "value": "complete tumor regression"}, {"measurement": "inhibition of tumor growth (TGI)", "setting": "OMP-C8 colon tumor cells", "value": 87, "unit": "% TGI"}, {"measurement": "side effects observed", "setting": "[4]", "value": "development or exacerbation of hypertension in some patients"}, {"measurement": "Notch target gene expression in tumors", "setting": "[5]", "value": "modulated Notch target gene expression in tumors similarly to anti-DLL4"}]}]}
